Assay results from publication PMC1569432, “The yfhQ gene of Escherichia coli encodes a tRNA:Cm32/Um32 methyltransferase” (BMC Molecular Biology, 2006).

Molecular target: the molecule itself
Assay: SEC; gel filtration of purified YfhQ on Superdex 200 in buffer B (50 mM Tris-HCl pH 7.5, 150 mM NaCl, 10 mM MgCl2, 10% glycerol); self-association, dimer

B1: YfhQ protein of Escherichia coli, His-tagged (enzyme, UniProt P0AE01 1-246, looked up)
chain: MLQNIRIVLVETSHTGNMGSVARAMKTMGLTNLWLVNPLVKPDSQAIALAAGASDVIGNAHIVDTLDEALAGCSLVVGTSARSRTLPWPMLDPRECGLKSVAEAANTPVALVFGRERVGLTNEELQKCHYHVAIAANPEYSSLNLAMAVQVIAYEVRMAWLATQENGEQVEHEETPYPLVDDLERFYGHLEQTLLATGFIRENHPGQVMNKLRRLFTRARPESQELNILRGILASIEQQNKGNKAE
notes: YfhQ (TrmJ), SPOUT superfamily methyltransferase of Escherichia coli; yfhQ gene in the pCA24N vector; theoretical mass of the His-tagged monomer 29.168 kDa; also called TrMet(Xm32); TrmJ; source: E. coli BL21 (DE3), purified (Ni2+ Chelating Sepharose, Superdex 200 gel filtration)
stoichiometry N: 2
